Source: US20240368300A1 (UCME BIOSCIENCE S R L, published 2024)

Key:
[1] = molecular target: T1, recombinant soluble human CD93 extracellular domain fused to a 6xHis tag (human, UniProt Q9NPY3 24-580); assay: SPR (BIAcore), 4E1 immobilized on chip, recombinant CD93 injected, 1:1 fit
T1 construct: extracellular domain; also called recombinant CD93; soluble CD93 protein
T1 sequence: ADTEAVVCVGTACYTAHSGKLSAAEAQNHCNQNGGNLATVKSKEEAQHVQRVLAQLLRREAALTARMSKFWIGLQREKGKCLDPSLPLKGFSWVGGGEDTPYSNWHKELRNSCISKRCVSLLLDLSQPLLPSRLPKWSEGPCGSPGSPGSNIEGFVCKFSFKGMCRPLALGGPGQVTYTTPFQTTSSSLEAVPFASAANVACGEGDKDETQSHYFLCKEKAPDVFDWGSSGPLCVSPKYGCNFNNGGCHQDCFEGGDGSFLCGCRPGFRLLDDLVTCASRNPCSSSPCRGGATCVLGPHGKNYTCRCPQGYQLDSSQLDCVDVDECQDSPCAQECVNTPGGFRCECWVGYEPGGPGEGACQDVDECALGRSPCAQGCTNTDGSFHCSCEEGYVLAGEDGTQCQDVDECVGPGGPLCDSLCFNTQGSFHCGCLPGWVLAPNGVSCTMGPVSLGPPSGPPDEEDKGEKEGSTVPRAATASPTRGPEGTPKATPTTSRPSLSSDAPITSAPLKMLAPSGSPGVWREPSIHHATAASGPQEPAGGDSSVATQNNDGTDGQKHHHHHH
Method: The binding analysis was performed using a BIAcore 3000 equipped with a CM5 sensor chip. Briefly, 4E1 antibody was immobilized via amine groups on a CM5 sensor chip following standard procedures (flow rate 5 μl/min). For the immobilization, 4E1 diluted in 10 mM Na acetate pH 4.0 at the concentration of 10 μg/ml was injected for 360 sec over the dextran matrix on flow cell, which had been previously activated with a mixture of EDC-NHS for 420 sec. After injection of the antibody, a pulse of Ethanolamine 1M was performed to neutralize activated groups. A reference flow cell to be used as blank, was simultaneously subjected to identical procedures, but the injection of Antibody, which was substituted with injection of dilution buffer alone (HBS-EP+). Recombinant purified CD93 protein was diluted in HBS-EP+ at different concentration (1 μg/ml, 2.5 μg/ml, […] and 20 μg/ml) and injected for 180 s at a flow rate of 60 μl/min on flow cell 4 and on reference flow cell 3. […] Sensorgrams illustrated in the figure are obtained by subtraction from sensorgrams on Fc4 of those obtained on Fc3. Kinetic rates were calculated applying a 1:1 binding as fitting model using the Bia T200 evaluation software 2.0.1

human full-length CD93 = molecular target: T2, human full-length CD93 (human, UniProt Q9NPY3 22-652); assay: immunofluorescence on fixed, permeabilized late spreading HUVECs
T2 construct: whole, on cells; Used in two settings; also called human CD93 protein
T2 sequence (looked up): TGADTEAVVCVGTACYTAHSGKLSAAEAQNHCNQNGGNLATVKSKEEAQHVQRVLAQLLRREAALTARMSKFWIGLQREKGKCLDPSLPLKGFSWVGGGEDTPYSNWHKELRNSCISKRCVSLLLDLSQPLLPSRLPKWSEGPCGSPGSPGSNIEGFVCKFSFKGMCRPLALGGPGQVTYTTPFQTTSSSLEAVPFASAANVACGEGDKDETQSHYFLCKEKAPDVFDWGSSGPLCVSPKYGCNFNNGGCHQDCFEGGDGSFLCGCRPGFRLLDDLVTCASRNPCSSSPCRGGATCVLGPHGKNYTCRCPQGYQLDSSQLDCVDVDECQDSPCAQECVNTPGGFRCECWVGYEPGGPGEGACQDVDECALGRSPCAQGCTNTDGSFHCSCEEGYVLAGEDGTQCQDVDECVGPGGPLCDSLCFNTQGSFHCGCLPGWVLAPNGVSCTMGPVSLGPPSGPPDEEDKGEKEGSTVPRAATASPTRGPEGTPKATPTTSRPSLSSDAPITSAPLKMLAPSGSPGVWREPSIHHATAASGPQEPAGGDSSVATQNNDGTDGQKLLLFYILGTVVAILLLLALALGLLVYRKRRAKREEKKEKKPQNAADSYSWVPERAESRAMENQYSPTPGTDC
Method: Zip Alexa Fluor Rapid Antibody Labeling kit (Thermo Fisher Scientific) was used to efficiently and quickly label the mAb 4E1 with Alexa Fluor 488 following the manufacturer's instructions. Briefly, 10 μl of 1 M sodium bicarbonate solution were added to 100 μl of 4E1 solution (1 mg/ml). Next, the antibody solution was incubated for 15 min at room temperature with the fluorochrome solution (Component B) and used in immunofluorescence experiments.
Cells were seeded onto gelatin-coated glass coverslips and fixed in 3% paraformaldehyde for 15 min at room temperature during the late spreading phase. Samples were permeabilized with 0.1% Triton X-100 in PBS, and blocked with 0.3% w/v BSA in PBS, each for 15 min at room temperature. Next, cells were washed with PBS and incubated 1 h at room temperature with Alexa Fluor 488-labeled 4E1 and rabbit anti-MMRN2 antibodies. Then, samples were washed three times with PBS/0.1% Tween-20 and incubated with secondary Alexa Fluor 568-labeled anti-rabbit antibodies (Thermo Fisher Scientific), diluted at 25 μg/mL in PBS/0.1% Tween-20. After washing, coverslips were mounted with Mowiol mounting medium. Fluorescent images were captured using a Leica TCS SP2 AOBS confocal laser-scanning microscope and overlaid images were produced. A Leica HCX PL APO Ibd.BL 63×/1.40 oil objective was used. […]

[2] = molecular target: T1, recombinant soluble human CD93 …; assay: SPR (BIAcore), rec4E1 immobilized on chip, recombinant CD93 injected, 1:1 fit
Method: The binding analysis was performed using a BIAcore 3000 equipped with a CM5 sensor chip. Briefly, rec4E1 or 4E1 antibodies were immobilized via amine groups on a CM5 sensor chip following standard procedures. For the immobilization, the antibody diluted in 10 mM Na acetate pH 4.0 at the concentration of 10 μg/ml was injected for 360 sec over the dextran matrix on flow cell, which had been previously activated with a mixture of EDC-NHS for 420 sec. After injection of the antibody, a pulse of Ethanolamine 1 M was used to neutralize activated groups. A reference flow cell to be used as blank was simultaneously subjected to identical procedures, but the antibody was substituted with dilution buffer (HBS-EP+). Recombinant purified CD93 protein was diluted in HBS-EP+ at different concentration (10, 25, 50, 100, 250, and 500 ng/mL) and injected for 180 s at a flow rate of 60 μl/min on all flow cells. […] Kinetic rates were calculated applying a 1:1 binding as fitting model using the Bia T200 evaluation software 2.0.1.

B1: anti-CD93 monoclonal antibody 4E1 (from hybridoma) (antibody, IgG1, V domains shown)
VH: QEQLQQPGTELVKPGASVRLSCKTSGYTFASYTLHWVKQTPGQGLDWIGAIYPGNGDTSYNQKFKDKATLTADKSSSTAYMQLSNLTSEDSAVYYCARLDWYFDLWGAGTTVTVS
VL: DIVLTQSPTSLAVSLGQRATISCKASQSVDYDGDSYMNWYQQKPGQPPRLLIYAASNLESGIPARFSGSGSGTDFTLNIHPVEEEDAATYYCQQNNEDPRTFGGGTKLEIK
notes: Mouse hybridoma antibody, full length, isotype IgG1 with k light chain; also called mAb 4E1; anti-CD93 4E1 mAb
[1]
  Kd: 450 pM

B2: Alexa Fluor 488-labeled 4E1 (antibody, V domains shown)
VH: B1 VH
VL: B1 VL
modifications: Alexa Fluor 488 dye conjugated to the antibody (site and chain not stated)
notes: mAb 4E1 (mouse IgG1 k) labelled with the Zip Alexa Fluor Rapid Antibody Labeling kit; also called conjugated 4E1
Human full-length CD93
  binding result: binds

B3: recombinant anti-CD93 monoclonal antibody rec4E1 (antibody, V domains shown)
VH: B1 VH
VL: B1 VL
notes: Whole recombinant IgG1 expressed in CHO cells from the pTRIOZ vector; The light chain constant region is not described; also called recombinant 4E1
[2]
  Kd: 5.09 pM
